The target of the experiment is T1, androgen receptor (Homo sapiens, UniProt P10275).
T1 construct: expressed in transfected cells; host or cells: SH-SY5Y
T1 sequence (P10275 1-920): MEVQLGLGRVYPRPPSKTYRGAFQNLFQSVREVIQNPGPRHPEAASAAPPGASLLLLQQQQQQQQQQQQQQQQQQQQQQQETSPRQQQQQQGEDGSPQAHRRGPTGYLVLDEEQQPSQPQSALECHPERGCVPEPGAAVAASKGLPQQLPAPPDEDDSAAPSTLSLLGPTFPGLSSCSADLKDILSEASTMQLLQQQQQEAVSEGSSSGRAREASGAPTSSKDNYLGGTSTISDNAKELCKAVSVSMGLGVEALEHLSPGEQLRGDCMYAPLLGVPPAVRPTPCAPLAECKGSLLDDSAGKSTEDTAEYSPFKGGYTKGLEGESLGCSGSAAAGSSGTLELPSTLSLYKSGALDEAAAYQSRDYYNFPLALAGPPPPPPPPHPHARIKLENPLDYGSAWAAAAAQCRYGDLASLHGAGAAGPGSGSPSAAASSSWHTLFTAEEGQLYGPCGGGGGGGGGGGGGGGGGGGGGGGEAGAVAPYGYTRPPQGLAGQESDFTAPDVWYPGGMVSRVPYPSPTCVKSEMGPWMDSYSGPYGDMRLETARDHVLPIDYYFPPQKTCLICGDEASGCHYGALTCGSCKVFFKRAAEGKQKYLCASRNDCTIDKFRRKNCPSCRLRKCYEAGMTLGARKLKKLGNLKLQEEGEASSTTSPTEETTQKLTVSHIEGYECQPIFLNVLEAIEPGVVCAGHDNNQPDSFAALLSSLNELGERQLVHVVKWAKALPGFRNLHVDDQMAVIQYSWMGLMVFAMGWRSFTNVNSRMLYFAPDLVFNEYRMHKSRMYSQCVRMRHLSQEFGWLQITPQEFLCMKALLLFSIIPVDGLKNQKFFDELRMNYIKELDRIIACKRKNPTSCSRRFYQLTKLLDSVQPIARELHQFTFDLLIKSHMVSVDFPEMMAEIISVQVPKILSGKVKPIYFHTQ
As to the kind of experiment: Co-activation of the androgen receptor signal (MMTV-luciferase reporter) in transfected SH-SY5Y cells. Format: cell-based. The note with it: SH-SY5Y cells transfected with 1 μg co-activator in CMX, MMTV-luciferase and pSG5AR; DHT for 24 hours; especially at low androgen concentrations of 10^−12-10^−10 M; vs CMX control plasmid. The procedure: The ARAP11-cDNA which codes for the ARAP11 fragment of amino acids 813-1,390, obtained by PCR, was cloned in the standard manner into the vector CMX and transfected with pSG5-AR and MMTV-luciferase in SH-SY5Y cells, also in the standard manner.
After 24 hours, the cells were treated with […] (DHT) as the androgen in the indicated concentrations. The transfected cells were harvested after another 24 hours, and the activity of the reporter gene luciferase was measured. In addition, the total quantity of cell protein was determined for the sake of normalization. One experiment and four measurements were conducted per transfection batch and substance concentration. The error range is given as the SD. The values of the corresponding controls without DHT were subtracted from all signals. The activity is expressed in relative units.

B1: ARAP11-cDNA: cDNA in vector CMX coding for amino acids 813-1,390 of ARAP11, co-activator for the human androgen receptor (protein)
chain: VIHALEKFTVYTLDIPVLFGVSTTSPEETCAQVIREAKRTAPSIVYVPHIHVWWEIVGPTLKATFTTLLQNIPSFAPVLLLATSDKPHSALPEEVQELFIRDYGEIFNVQLPDKEERTKFFEDLILKQAAKPPISKKKAVLQALEVLPVAPPPEPRSLTAEEVKRLEEQEEDTFRELRIFLRNVTHRLAIDKRFRVFTKPVDPDEVPDYVTVIKQPMDLSSVISKIDLHKYLTVKDYLRDIDLICSNALEYNPDRDPGDRLIRHRACALRDTAYAIIKEELDEDFEQLCEEIQESRKKRGCSSSKYAPSYYHVMPKQNSTLVGDKRSDPEQNEKLKTPSTPVACSTPAQLKRKIRKKSNWYLGTIKKRRKISQAKDDSQNAIDHKIESDTEETQDTSVDHNETGNTGESSVEENEKQQNASESKLELRNNSNTCNIENELEDSRKTTACTELRDKIACNGDASSSQIIHISDENEGKEMCVLRMTRARRSQVEQQQLITVEKALAILSQPTPSLVVDHERLKNLLKTVVKKSQNYNIFQLENLYAVISQCIYRHRKDHDKTSLIQKMEQEVENFSCSR
modifications: fetalbrain; ARAP11 fragment from amino acid residues 813- 1390
With B1, the “co-activation of the AR signal activity (luciferase reporter activity)” value was “strong co-activation of the AR signal activity”.

Source of the values: patent US20030124508A1, “Method for testing the hormonal effect of substances” (priority 2001, published 2003).
